The RNAGym collection of RNA variant scans (doi:10.1073/pnas.2313332121)
Fewer inactive variants are shown than the library holds.

B1: TPR 5TU (parent)
chain: GGAUCUUCUCGAUCUAACAAAAAAGACAAAUCUGCCACAAAGCUUGAGAGCAUCUUCGGAUGCAGAGGCGGCAGCCUUCGGUGGCGCGAUAGCGCCAACGUUCUCAACUAUGACACGCAAAACGCGUGCUCCGUUGAAUGGAGUUUAUCAUG

Variants of: B1
Test: polymerase ribozyme fitness, log enrichment relative to wild type (log ratio); higher = more active; in vitro selection for triplet polymerase activity
In short: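 PCR was used to build mutant libraries for each subunit of a heterodimeric triplet polymerase ribozyme, which were then transcribed. A single in vitro selection round, in triplicate, used a frozen incubation at −7 °C and recovered extended constructs by gel excision, streptavidin beads and RT-PCR. Fitness is the logarithm of genotype enrichment relative to wild-type enrichment, averaged over replicates with inverse-variance weights. The logarithm is base 2, and after Illumina sequencing only genotypes with ≥10 input reads and ≥1 read per output were kept.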

| Variant | polymerase ribozyme fitness (log ratio) |
| --- | --- |
| GGAUCUUCUCGAUCUAACAUAAAAGACAAAUCUGCCACAAAGCUUGAGAGCAUCUUCGGAUGCAGAGGCGGCAGCCUUCGGUGGCGGGAUUGCGCCAACGUUCUCAACUAUGACACGCAAAACGCGUGCUCCGUUGAAUGGAGUUUAUCAUG [A20U C87G A91U] | ≤ -4.2 |
| GGAUCUUCUCGAUCUAACAAAAAAGACAAAUCUGCCACAAAGCUUGAGAGCAUCAUCGGAUGCAGAGGCGGCAGCCUUCGGUGGCGCGAUAGCGCCAACGUUCUCAACUAUGACACGCAAAACGCCUGCUCCGUUGAAUGGAGUUUAUCAUG [U55A G126C] | 1.42 |
| GGAUCUUCGCGAUCUAACAAAAAAGACAAAUCAGCCACAAAGCUUGAGAACAUCUUCGGAUGCAGAGGCGGCAGCCUUCGGUGGCGCGAUAGCGCCAACGUUCUCAACUAUGACACGCAAAACGCGUGCUCCGUUGAAUGGAGUUUAUCAUG [U9G U33A G50A] | -4.2 |
| GGAUCUUCUGGAUCUAACAAAAAAGACAAAUCUGCCACAAAGCUUGAGAGCAUCUUCGGAUGCAGAGGCGGCAGCCUUCGGUGGCGCGAUAGCGUCAACGUUCUCAACUAUGACACGCAAAACGCGUGCUCCGUUGAAUGGAGUUUAUCAUG [C10G C95U] | -3.16 |
| GGAUCUUCUCGAUCUAACAAAAAUGACAAAUCUGCCACAAAGCUUGAGAGCAUCUUUGGAUGCAGAGGGGGCAGCCUUCGGUGACGAGAUAGCGCCAACGUUCUCAACUAUGACCCGCAAAACGCGUGCUCCGUUGAAUGGAGUUUAUCAUG [A24U C57U C69G G84A C87A A115C] | ≤ -4.2 |
| GGAUCUUCUCGAUCUAACAAAAAAGACAAAUCUGCCACAAAGCUUGAGAGCAUGUUCGGAUGCAGAGGCGGCAGGCUUCGGUGGCGAGAUAGCGCCAACGUUCUCAACUAUGACACGCAAAACGCGUGCUCCGUUGAAUGGAGUUUAUCAUG [C54G C75G C87A] | ≤ -4.2 |
| GGAUCUUCUCGAUCUAACAAAAAAGACAAAUCUGCCACAAAGCUUGAGAGCAUCUUCGCCUGCAGAGGCGGCAGCCUUCGGUGGCGGGAUAGCGCCAACGUUCUCAACUAUGACACGCAAAACGCGUGCUCCGUUGAAUGGAGUUUAUCAUG [G59C A60C C87G] | ≤ -4.2 |
| GGAUCUUCUCGAUCUAACAAAAAAGACAAAUCUGCCACAGAGCUUGAGAGCAUCUACGUAUGCAGAGACGGCAGCCUUCGGUGGCGCGAUAGCGACAACGUUCUCAACUAUGACACGCAAAACGCGUGCUCCGUAGAAUGGAGUUUAUCUUG [A40G U56A G59U G68A C95A U135A A150U] | ≤ -4.2 |
| GGAUCUUCUCGAUCUAACAAAAAAGACAAAUCUGCCACAAAGCGUGAGAGCAUCUUCGGUUGCAGAGGCGGCAGCCUUCGGUGGCGCGAUAGCGCCAACGUUCUCAACUAUGACCCGCAAAACGCGUGCUCCGUUGAAUGGAGUUUAUCAUG [U44G A60U A115C] | ≤ -4.2 |
| GGAUCUUCUCGAUCUAACAAAAAAGACAAAUCUGCCACAAAGCUAGAGAGCGUCUUCGGAUGCAGAGGCGGCAGCCUUCGGUGGCGCGAUAGCGCCAACGUUCUCAACUAUGACACGAAAAACGCGUGCUCCGUUGAAUGGAGUUUAUCAUG [U45A A52G C118A] | -4.18 |
| GGAUCUUCUCGAUCUAACAAAAAAGACAAAUCUGCCACAAAGCUUGAGAGCAUCUUCGGAUGCAGAGGCGGCAGCCUUCGGUCGCGCGAUAGCGCCAGCGUUCUCAACUAUGACACGCAAAACGCGUGCUCCGUUGAAUGGAGUUUAUCAUG [G83C A98G] | -3.71 |
| GGAUCUUCUCGAUCUAACAAAAAAGACAAAUCUGUCACAAAGCUUGAGCGCAUCUUCGAAUGCAGAGGCGGCAGCCUUCGGUGGCGCGAUAGCGCAAACGUUCUCAACUAUGACACGCAAAACGCGUGCUCCGUUGAAUGGAGUUUAGCCUG [C35U A49C G59A C96A U148G A150C] | ≤ -4.2 |
| GGAUCUUCUCGAUCUAACAAAAAAGACAAAUCUGCCACAAAGCUUGAGAGCAUCUUCGGAUGCAGAGGCGGCAGCCUUCGGUAGCGCUAUAGCGCCAACGUUCUCAACUAGGACACGCAAAACGCGUGCUCCGUAGAAUGGAGUUUAUCAUG [G83A G88U U111G U135A] | ≤ -4.2 |
| GGAUCUUCUCGAUGUAACAAGAAAGACAAAUCUACCCCAAAGCUUGAGACCAUCUUGGGCUGCGGAGGCGGCAGCCUUCGGUGGCGCGAUAGCGCCAACGUUCUCAACUAUGACACGCAAAACGCGUGCUCCGUUGAAUGGAGUUUAUCAUG [C14G A21G G34A A37C G50C C57G A60C A64G] | ≤ -4.2 |
| GGAUCUUCUCGAUCUAACAAAAAAGACUAAUCUGCCACAAAGCUUGAGAGCAUCUUCCGAUGCAGAGGCGGCAGCCUUCGGUGGCGCGAUAGCGCAGACGUUCUCAACUAUGACACGCAAAACGCGUGCUCCGUUGAAUGGAGAGUAUCAUG [A28U G58C C96A A97G U144A U145G] | ≤ -4.2 |
| GGAUCUUCUCGAUCUAACAAAAAAGACAAAUCUGCCACUAAGCUUGGGAGCAUCUUCGGAUGCAGAGGCGGCAGCCUUCGGUGGCGCGAUAGCGCCAACGUUCUCAACUAUGACACGCAAAACGCGUGCUCCGUUGAAGGGAGUUUAUCAGG [A39U A47G U139G U151G] | ≤ -4.2 |
| GGAUCUUCUCGGUCUAACAAAAAAGACAAAUCUGCCGCAAAGCUUGAGAGCAUAUUUGGAUGCAGAGGCGACAGCCUUCGGUGGCGCGAUAGCGCCAACGUUCUCAACUAUGACGCGCAAAACGCGUGCUCCGUUGAAUGGAGUUUAUCAUG [A12G A37G C54A C57U G71A A115G] | ≤ -4.2 |
| GGAUCUUCUCGAUCUAACAAAAAAGACAAAUCUGCCACAAAGCUUGAGAGCAUCUUCGUAUGCAGAGGCGGCAGCCUUCGGUGGCGCGAUAGCGCCAACGUUCUCACCUAUGACACGCAAUACGCGUGCUCCGUUGAAUGGAGUUUAUCAUG [G59U A107C A121U] | -3.86 |
| GGAUCUUCUCGAUCUAACAAAAAAGACAACUCUGCCACAAAGCUUUAGAGCAUCUUCGGAUGCAGAGGCGGCAGCCUUCGGUGGCGCGAUAGCGGCAACGUGCUCAACUAUGACACGCAAAACGCGUGCUCCGUUGAAUGGAGUUUAUCAUG [A30C G46U C95G U102G] | ≤ -4.2 |
